Experimental data from patent US20040018971A1 (published 2004).

Assays:
HLA-A*0101 [1] = target: T1, HLA-A*0101 (human); assay: competition with a 125I-labelled probe peptide for purified HLA-A*0101, gel filtration; ratio against the A*0101 standard peptide 944.02 [..] (25 nM)
T1 construct: Purified HLA molecule, 5 to 500 nM in the assay; also called HLA-A1

HLA-A*0101 [2] = target: T2, HLA-A*0101 (human); assay: competition with 125I-labelled probe peptide for purified HLA-A*0101, gel filtration
T2 construct: also called HLA-A1

[3] = target: T3, HLA-A*6801 (purified HLA class I molecule) (human); assay: competition vs 125I standard peptide, purified HLA
T3 construct: Purified MHC molecule

[4] = target: T4, HLA-A*3301 (purified HLA class I molecule) (human); assay: competition vs 125I standard peptide, purified HLA
T4 construct: Purified MHC molecule

[5] = target: HLA-A*0301 (purified HLA class I molecule) (human); assay: competition vs 125I standard peptide, purified HLA
[6] = target: T5, HLA-A*3101 (purified HLA class I molecule) (human); assay: competition vs 125I standard peptide, purified HLA
T5 construct: Purified MHC molecule

[7] = target: T6, HLA-A*1101 (purified HLA class I molecule) (human); assay: competition vs 125I standard peptide, purified HLA
T6 construct: Purified MHC molecule

[8] = target: T7, HLA-A*0301 (purified HLA class I molecule) (human); assay: inhibition of 125I probe peptide binding to purified HLA; ratio to standard peptide; minus sign not explained
T7 construct: also called A3

[9] = target: HLA-A*1101 (purified HLA class I molecule) (human); assay: as above
HLA-A*0201 = target: T8, HLA-A*0201 (human); assay: competitive inhibition of 125I-labeled probe peptide binding to purified HLA-A*0201
T8 construct: also called HLA-A2.1; A2.1

HLA-DR1 (DRB1*0101) = HLA-DR1 (DRB1*0101) (human); assay: competition with 125I-labelled probe peptide on purified HLA-DR, gel filtration; IC50 of standard peptide / IC50 of test peptide
HLA-DR4w4 (DRB1*0401) = target: T9, HLA-DR4w4 (DRB1*0401) (human); assay: as above
T9 construct: Purified HLA class II molecule

HLA-DR7 (DRB1*0701) = target: T10, HLA-DR7 (DRB1*0701) (human); assay: as above
T10 construct: Purified HLA class II molecule

HLA-DRB1*0401 = target: T11, HLA-DRB1*0401 (human); assay: competition with 125I-labeled standard peptide, purified HLA-DR, gel filtration
T11 construct: also called DR4w4

HLA-DRB1*0701 = target: T12, HLA-DRB1*0701 (human); assay: as above
T12 construct: also called DR7

HLA-A*0203 = HLA-A*0203 (human); assay: competition with 125I probe peptide for purified HLA
HLA-A*6802 = HLA-A*6802 (human); assay: as above
HLA-A*0206 = HLA-A*0206 (human); assay: as above
HLA-A*0202 = HLA-A*0202 (human); assay: as above
HLA-A*1101 = HLA-A*1101 (human); assay: inhibition of 125I-labelled standard peptide binding to purified HLA, gel filtration
HLA-A*3101 = HLA-A*3101 (human); assay: as above
HLA-A*3301 = HLA-A*3301 (human); assay: as above
HLA-A*6801 = HLA-A*6801 (human); assay: as above
HLA-A*0301 = HLA-A*0301 (human); assay: as above

For TCSPQPEY (also called Her2/neu.1132) [HER2/neu peptide, position 1132, 8 amino acids], the “relative binding ratio (IC50 of standard peptide / IC50 of test peptide)” value (HLA-A*0101 [1]) was -0.0021 ratio.

In the case of PSGVKPDLSY [HER2/neu peptide, position 601, 10 amino acids], the relative binding ratio (HLA-A*0101 [2]) is reported as 0.001 ratio (IC50 of standard peptide / IC50 of test peptide).

With ILWKDIFHK (also called Her2/neu.167) [HER2/neu peptide, position 167, 9 amino acids] the relative binding ratio [3] was 0.0046 ratio (IC50 standard/IC50 test), the relative binding ratio [4] was 0.03 ratio (IC50 standard/IC50 test) and the relative binding ratio [5] was 0.28 ratio (IC50 standard/IC50 test). The relative binding ratio [6] was 0.22 ratio (IC50 standard/IC50 test) and the relative binding ratio [7] was 0.31 ratio (IC50 standard/IC50 test).

VFETLEEITGY (also called Her2/neu.399) [HER2/neu peptide, position 399, 11 amino acids] was tested, and the “relative binding ratio (IC50 of standard peptide / IC50 of test peptide)” value (HLA-A*0101 [1]) was 0.0045 ratio.

In the case of GMEHLREVR (also called Her2/neu.346 (9-mer)) [HER2/neu peptide, position 346, 9 amino acids], the relative binding ratio [8] is reported as -0.0002 ratio (IC50 standard / IC50 test) and the relative binding ratio [9] is reported as -0.0002 ratio (IC50 standard / IC50 test).

In the case of QLFEDNYALA [Her2/neu.106], the IC50 (HLA-A*0201) is reported as ≤ 500 nM.

In the case of ETLEEITGYLY (also called Her2/neu.401) [HER2/neu peptide, position 401, 11 amino acids], the relative binding ratio (HLA-A*0101 [2]) is reported as 0.44 ratio (IC50 of standard peptide / IC50 of test peptide).

For ILKETELRK [HER2/neu peptide, position 714, 9 amino acids], the relative binding ratio [3] was 0.0001 ratio (IC50 standard/IC50 test), the relative binding ratio [4] was 0.001 ratio (IC50 standard/IC50 test) and the relative binding ratio [5] was 0.019 ratio (IC50 standard/IC50 test). The relative binding ratio [6] was 0.0009 ratio (IC50 standard/IC50 test) and the relative binding ratio [7] was 0.0023 ratio (IC50 standard/IC50 test).

For VTACPYNY (also called Her2/neu.296) [HER2/neu peptide, position 296, 8 amino acids], the “relative binding ratio (IC50 of standard peptide / IC50 of test peptide)” value (HLA-A*0101 [1]) was 0.1 ratio.

DMKLRLPASPETHLD (also called Her2/neu.30) [HER2/neu peptide DMKLRLPASPETHLD (position 30)] was tested, and the relative binding ratio (HLA-DR1 (DRB1*0101)) was 0.001 ratio, the relative binding ratio (HLA-DR4w4 (DRB1*0401)) was -0.0025 ratio and the relative binding ratio (HLA-DR7 (DRB1*0701)) was -0.0013 ratio.

B1: HER2/neu DR supermotif exemplary peptide KEILDEAYVMAGVGS (position 765) (peptide)
peptide: KEILDEAYVMAGVGS
notes: synthetic 15-mer; also called Her2/neu.765
With B1 the relative binding ratio (HLA-DRB1*0401) was 0.0073 ratio (standard IC50 / test IC50) and the relative binding ratio (HLA-DRB1*0701) was -0.0011 ratio (standard IC50 / test IC50).

In the case of THDPSPLQRY (also called Her2/neu.1103) [HER2/neu peptide, position 1103, 10 amino acids], the “relative binding ratio (IC50 of standard peptide / IC50 of test peptide)” value (HLA-A*0101 [1]) is reported as 0.0015 ratio.

For ILIKRRQQK [HER2/neu peptide, position 673, 9 amino acids], the relative binding ratio [3] was 0.0001 ratio (IC50 standard/IC50 test), the relative binding ratio [4] was 0.0064 ratio (IC50 standard/IC50 test) and the relative binding ratio [5] was 0.38 ratio (IC50 standard/IC50 test). For the same binder, the relative binding ratio [6] was 0.076 ratio (IC50 standard/IC50 test) and the relative binding ratio [7] was 0.0097 ratio (IC50 standard/IC50 test).

For GTDMKLRLPASPETH (also called Her2/neu.28) [HER2/neu peptide GTDMKLRLPASPETH (position 28)], the relative binding ratio (HLA-DR1 (DRB1*0101)) was 0.001 ratio, the relative binding ratio (HLA-DR4w4 (DRB1*0401)) was -0.0025 ratio and the relative binding ratio (HLA-DR7 (DRB1*0701)) was -0.0013 ratio.

In the case of GVVFGILIK [HER2/neu peptide, position 668, 9 amino acids], the relative binding ratio [3] is reported as 0.0011 ratio (IC50 standard/IC50 test), the relative binding ratio [4] is reported as 0.0025 ratio (IC50 standard/IC50 test) and the relative binding ratio [5] is reported as 0.0047 ratio (IC50 standard/IC50 test). For the same binder, the relative binding ratio [6] was 0.0019 ratio (IC50 standard/IC50 test) and the relative binding ratio [7] was 0.089 ratio (IC50 standard/IC50 test).

In the case of ALCRWGLLLA [Her2/neu.5 (10-mer) ALCRWGLLLA], the IC50 (HLA-A*0203) is reported as 12 nM, the IC50 (HLA-A*6802) is reported as 2500 nM and the IC50 (HLA-A*0206) is reported as 1950 nM. The IC50 (HLA-A*0202) was 1960 nM.

B2: Her2/neu.166 (10 amino acids) (peptide)
peptide: TILWKDIFHK
notes: Synthetic A3 supermotif peptide; also called HER2/neu peptide, position 166, 10 amino acids
For B2, the relative binding ratio (HLA-A*1101) was 3.6 ratio (IC50 of standard peptide / IC50 of test peptide), the relative binding ratio (HLA-A*3101) was 0.037 ratio (IC50 of standard peptide / IC50 of test peptide) and the relative binding ratio (HLA-A*3301) was 0.042 ratio (IC50 of standard peptide / IC50 of test peptide). For the same binder, the relative binding ratio (HLA-A*6801) was 0.04 ratio (IC50 of standard peptide / IC50 of test peptide) and the relative binding ratio (HLA-A*0301) was 0.043 ratio (IC50 of standard peptide / IC50 of test peptide).

TLEEITGYLY (also called Her2/neu.402) [HER2/neu peptide, position 402, 10 amino acids] was tested, and the “relative binding ratio (IC50 of standard peptide / IC50 of test peptide)” value (HLA-A*0101 [1]) was 1.1 ratio.

In the case of DSECRPRFR (also called Her2/neu.962 (9-mer)) [HER2/neu peptide, position 962, 9 amino acids], the relative binding ratio [8] is reported as -0.0002 ratio (IC50 standard / IC50 test) and the relative binding ratio [9] is reported as -0.0002 ratio (IC50 standard / IC50 test).

With GLACHQLCA [Her2/neu.508] the IC50 (HLA-A*0201) was ≤ 500 nM.
